Assays:
[1] = molecular target: T1, rat LDL receptor (YB2/0 cells) (rat, UniProt P35952 22-879); assay: flow cytometry on YB2/0 cells, antibody at 30 µg/mL
T1 construct: whole, on cells
Description: (§1) The cross-reactivity of the anti-LDL-R antibodies was tested in the mouse (C2C12 cells), in the rat (YB2/0 cells), and in the hamster (CHO-K1 cells). The anti-LDL-R 12G4 antibodies were incubated at a final concentration of 30 μg/mL for 3 hours at 4° C. on C2C12, CHO-K1, and YB2/0 cells that had been cultured beforehand under LPDS conditions for 24 hours. The commercial 1C6 (anti-SREBP2, IgG) and C7 (anti-LDL-R, IgG2b) antibodies were used as negative and positive control antibodies, respectively. The detection of the bond was performed using an anti-IgG-PE antibody. The results were expressed as the percentage of fluorescent cells (FIG. 6A) and as mean fluorescence (FIG. 6B).

[2] = molecular target: T2, mouse LDL receptor (C2C12 cells) (mouse, UniProt P35951 22-862); assay: flow cytometry on C2C12 cells, antibody at 30 µg/mL
T2 construct: whole, on cells; also called murine LDL-R
Description: as §1

[3] = molecular target: T3, hamster LDL receptor (CHO-K1 cells) (hamster, UniProt P35950 22-862); assay: flow cytometry on CHO-K1 cells, antibody at 30 µg/mL
T3 construct: whole, on cells
Description: as §1

Measured: binding result

T1 sequence (P35952 22-879): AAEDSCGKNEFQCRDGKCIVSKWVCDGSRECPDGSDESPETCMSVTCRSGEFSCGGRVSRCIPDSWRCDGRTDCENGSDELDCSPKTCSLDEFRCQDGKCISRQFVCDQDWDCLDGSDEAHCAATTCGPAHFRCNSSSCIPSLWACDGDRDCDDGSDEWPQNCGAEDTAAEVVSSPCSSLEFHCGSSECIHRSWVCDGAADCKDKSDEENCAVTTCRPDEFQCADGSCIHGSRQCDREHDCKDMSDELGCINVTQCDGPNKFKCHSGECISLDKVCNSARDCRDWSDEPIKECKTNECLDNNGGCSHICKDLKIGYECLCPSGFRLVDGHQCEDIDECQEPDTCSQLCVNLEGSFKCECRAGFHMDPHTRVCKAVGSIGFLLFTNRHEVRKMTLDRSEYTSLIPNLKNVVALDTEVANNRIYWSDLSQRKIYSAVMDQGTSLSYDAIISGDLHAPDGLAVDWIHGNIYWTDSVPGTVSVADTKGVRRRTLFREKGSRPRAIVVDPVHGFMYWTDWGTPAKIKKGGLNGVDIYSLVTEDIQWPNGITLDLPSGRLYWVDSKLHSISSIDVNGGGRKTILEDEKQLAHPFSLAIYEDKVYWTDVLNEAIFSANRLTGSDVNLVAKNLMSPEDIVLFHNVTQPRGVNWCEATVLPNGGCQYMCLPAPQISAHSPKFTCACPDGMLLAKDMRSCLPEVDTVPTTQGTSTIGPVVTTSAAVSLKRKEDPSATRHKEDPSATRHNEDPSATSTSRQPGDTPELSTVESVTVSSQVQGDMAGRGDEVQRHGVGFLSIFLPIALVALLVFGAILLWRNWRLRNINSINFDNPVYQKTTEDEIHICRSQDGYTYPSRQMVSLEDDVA
T2 sequence (P35951 22-862): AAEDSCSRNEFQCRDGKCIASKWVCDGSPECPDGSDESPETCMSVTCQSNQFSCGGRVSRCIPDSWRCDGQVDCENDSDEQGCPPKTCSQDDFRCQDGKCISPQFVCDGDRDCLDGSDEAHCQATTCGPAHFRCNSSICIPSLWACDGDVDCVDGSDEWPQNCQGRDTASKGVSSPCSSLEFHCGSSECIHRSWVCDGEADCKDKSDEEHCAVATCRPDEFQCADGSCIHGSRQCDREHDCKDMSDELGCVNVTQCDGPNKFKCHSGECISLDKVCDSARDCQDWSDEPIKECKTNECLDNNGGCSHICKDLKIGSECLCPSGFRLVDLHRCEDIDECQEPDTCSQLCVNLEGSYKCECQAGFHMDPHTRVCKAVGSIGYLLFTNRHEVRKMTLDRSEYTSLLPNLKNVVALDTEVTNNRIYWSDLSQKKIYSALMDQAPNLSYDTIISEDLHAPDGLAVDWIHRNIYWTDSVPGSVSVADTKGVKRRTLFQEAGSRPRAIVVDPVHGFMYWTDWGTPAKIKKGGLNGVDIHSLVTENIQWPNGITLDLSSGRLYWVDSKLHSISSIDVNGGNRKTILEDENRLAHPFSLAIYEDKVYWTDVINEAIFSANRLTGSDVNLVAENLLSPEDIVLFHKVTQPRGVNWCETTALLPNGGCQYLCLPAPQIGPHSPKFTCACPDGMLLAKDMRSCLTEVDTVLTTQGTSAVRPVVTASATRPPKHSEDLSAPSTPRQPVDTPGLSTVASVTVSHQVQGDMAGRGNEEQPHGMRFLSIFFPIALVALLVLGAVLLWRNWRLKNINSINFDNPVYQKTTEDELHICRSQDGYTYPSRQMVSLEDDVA
T3 sequence (P35950 22-862): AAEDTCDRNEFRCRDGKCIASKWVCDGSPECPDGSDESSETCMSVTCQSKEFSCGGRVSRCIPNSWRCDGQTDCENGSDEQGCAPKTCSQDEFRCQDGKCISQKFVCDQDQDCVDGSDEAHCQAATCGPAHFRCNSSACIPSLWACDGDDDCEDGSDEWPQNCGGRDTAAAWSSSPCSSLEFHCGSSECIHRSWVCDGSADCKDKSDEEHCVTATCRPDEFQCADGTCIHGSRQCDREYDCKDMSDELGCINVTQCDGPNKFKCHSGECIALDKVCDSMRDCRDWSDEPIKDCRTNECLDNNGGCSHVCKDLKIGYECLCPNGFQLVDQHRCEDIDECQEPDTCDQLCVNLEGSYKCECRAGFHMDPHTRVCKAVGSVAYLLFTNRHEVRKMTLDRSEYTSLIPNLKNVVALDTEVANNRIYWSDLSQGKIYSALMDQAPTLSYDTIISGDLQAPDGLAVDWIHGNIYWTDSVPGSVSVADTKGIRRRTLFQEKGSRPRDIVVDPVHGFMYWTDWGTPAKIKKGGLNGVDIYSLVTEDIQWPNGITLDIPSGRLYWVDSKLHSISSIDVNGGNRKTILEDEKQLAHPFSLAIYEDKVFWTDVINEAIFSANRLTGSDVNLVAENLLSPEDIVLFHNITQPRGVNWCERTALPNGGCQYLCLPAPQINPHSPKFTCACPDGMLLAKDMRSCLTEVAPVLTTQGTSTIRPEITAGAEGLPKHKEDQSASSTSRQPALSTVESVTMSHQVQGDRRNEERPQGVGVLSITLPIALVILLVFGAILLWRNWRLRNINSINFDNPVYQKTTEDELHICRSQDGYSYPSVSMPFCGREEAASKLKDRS

B1: anti-LDL-R 12G4 antibody (antibody, mouse IgG1, V domains shown)
VH: QIQLVQSGPELKKPGETVKISCKASGYTFTKYGMNWVKQAPGKGLKWMGWINTNTGEPTYAEEFKGRFAFSLETSASTAFLQINNLKNEDTATYFCSRGGYYDSYWGQGTLVTVSA
VL: DIVMSQSPSSLAVSVGEKVTMSCKSSQSLLYSSSQKNYLAWYQQKPGQSPKVLIYWASTRESGVPDRFTGSGSGTDFTLTISSVKAEDLAVYYCQQYYTYRTFGGGTKLEIK
notes: Murine IgG1 kappa purified from ascites of hybridoma H12G4; also called anti-LDL-R 12G4 antibodies; monoclonal antibody produced by the H12G4 hybridoma (CNCM I-3487)
binds: all assays above

Reference: patent US20090175789A1 (LFB BIOTECHNOLOGIES, published 2009)
